Experimental data published in US20140038900A1 (INSTITUT NATIONAL DE LA SANTE ET DE LA RECHERCHE MEDICALE …, published 2014).

Target: heat-shock protein 70 (HSP70) (UniProt P0DMV8 1-641)
Assay: co-immunoprecipitation and Western blot, HCT116 cells
Procedure: Transfected cells were first lysed in lysis buffer (50 mM Hepes (pH 7.6), 150 mM NaCl, 5 mM EDTA and 0.1% NP40) followed by immunoprecipitation using GFP-tag antibody. Immunoprecipitates were separated in a 10% SDS-polyacrylamide gel and then transferred to PVDF membranes using a wet transfer apparatus (BioRad, Hercules, Calif., USA). Membranes were first probed overnight using primary antibodies: HA-tag antibody was from Covance (Eurogentec, Angers, France), 14-3-3 from Santa-Cruz (TebuBio, Le Perray en Yvelines, France) and GFP-tag antibody from Millipore (Molsheim, France).

heat-shock protein 70 (HSP70), sequence (P0DMV8 whole entry): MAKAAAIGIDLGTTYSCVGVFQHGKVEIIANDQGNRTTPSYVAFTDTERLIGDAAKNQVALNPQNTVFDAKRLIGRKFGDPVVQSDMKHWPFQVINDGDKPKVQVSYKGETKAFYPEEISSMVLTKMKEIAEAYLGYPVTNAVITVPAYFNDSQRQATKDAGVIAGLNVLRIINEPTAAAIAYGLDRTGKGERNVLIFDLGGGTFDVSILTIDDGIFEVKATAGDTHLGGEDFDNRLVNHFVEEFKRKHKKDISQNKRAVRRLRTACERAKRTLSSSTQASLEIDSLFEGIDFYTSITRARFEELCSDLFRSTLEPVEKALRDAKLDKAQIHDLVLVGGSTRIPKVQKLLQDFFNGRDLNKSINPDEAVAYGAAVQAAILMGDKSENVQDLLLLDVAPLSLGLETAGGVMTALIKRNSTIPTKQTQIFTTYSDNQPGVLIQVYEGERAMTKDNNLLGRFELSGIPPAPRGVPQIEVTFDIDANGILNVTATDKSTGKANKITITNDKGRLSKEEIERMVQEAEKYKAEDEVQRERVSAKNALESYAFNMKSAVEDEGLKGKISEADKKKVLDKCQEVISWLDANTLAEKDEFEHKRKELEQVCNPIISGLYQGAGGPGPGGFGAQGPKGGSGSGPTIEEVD

binding result: no binding
B1: mutated HSP110 lacking exon 9 (HSP110delE9), GFP-tagged (other)
chain: MSVVGLDVGSQSCYIAVARAGGIETIANEFSDRCTPSVISFGSKNRTIGVAAKNQQITHANNTVSNFKRFHGRAFNDPFIQKEKENLSYDLVPLKNGGVGIKVMYMGEEHLFSVEQITAMLLTKLKETAENSLKKPVTDCVISVPSFFTDAERRSVLDAAQIVGLNCLRLMNDMTAVALNYGIYKQDLPSLDEKPRIVVFVDMGHSAFQVSACAFNKGKLKVLGTAFDPFLGGKNFDEKLVEHFCAEFKTKYKLDAKSKIRALLRLYQECEKLKKLMSSNSTDLPLNIECFMNDKDVSGKMNRSQFEELCAELLQKIEVPLYSLLEQTHLKVEDVSAVEIVGGATRIPAVKERIAKFFGKDISTTLNADEAVARGCALQC
notes: Made by PCR from the GFP-HSP110 vector and cloned into the EGFp C2 vector; also called HSP110deIE9; HSP110ΔE9; not shown: GFP tag from the EGFp C2 vector into which the mutant HSP110 cDNA was cloned
